Source: article PMC5389509
Numbering of substitutions follows the chain as printed.

Legend:
YxiN S108C/N444C [1] = molecular target: T1, YxiN S108C/N444C (UniProt P42305 1-479, C61A;C267A;S108C;N444C); test: fluorescence anisotropy
T1 sequence: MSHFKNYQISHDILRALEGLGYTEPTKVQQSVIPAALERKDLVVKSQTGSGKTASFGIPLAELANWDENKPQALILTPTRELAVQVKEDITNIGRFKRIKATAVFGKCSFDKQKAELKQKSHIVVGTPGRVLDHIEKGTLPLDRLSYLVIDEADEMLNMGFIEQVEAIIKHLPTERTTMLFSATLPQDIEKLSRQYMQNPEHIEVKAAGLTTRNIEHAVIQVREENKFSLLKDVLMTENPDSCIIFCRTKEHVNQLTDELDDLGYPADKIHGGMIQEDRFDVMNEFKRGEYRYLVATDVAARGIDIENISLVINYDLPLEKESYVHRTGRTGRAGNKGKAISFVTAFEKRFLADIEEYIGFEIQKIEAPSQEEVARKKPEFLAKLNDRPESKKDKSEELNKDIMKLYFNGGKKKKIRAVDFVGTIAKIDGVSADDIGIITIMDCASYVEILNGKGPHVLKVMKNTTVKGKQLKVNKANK

[2] = molecular target: T2, YxiN A115C/S229C biotinylated (UniProt P42305 1-479, C61A;C267A;A115C;S229C); test: smFRET
T2 sequence: T1 sequence with C108S, A115C, S229C, C444N

YxiN S108C/S229C = molecular target: T3, YxiN S108C/S229C (UniProt P42305 1-479, C61A;C267A;S108C;S229C); test: smFRET
T3 sequence: T1 sequence with S229C, C444N

YxiN S108C/N464C = molecular target: T4, YxiN S108C/N464C (UniProt P42305 1-479, C61A;C267A;S108C;N464C); test: smFRET
T4 sequence: T1 sequence with C444N, N464C

YxiN S108C/D429C = molecular target: T5, YxiN S108C/D429C (UniProt P42305 1-479, C61A;C267A;S108C;D429C); test: smFRET
T5 sequence: T1 sequence with D429C, C444N

YxiN S108C/N444C [3] = molecular target: T1, YxiN S108C/N444C; test: smFRET

Binder	Kd (YxiN S108C/N444C [1])	binding result [2]	binding result (YxiN S108C/S229C)	binding result (YxiN S108C/N464C)	binding result (YxiN S108C/D429C)	binding result (YxiN S108C/N444C [3])
CGAGGUCCCAAGGGUUGGGCUGUUCGCCCAUU (structured_RNA) [32mer (FAM)]	170 nM	–	–	–	–	–
CGAGGUCCCAAGGGUUGGGCUGUUCGCCCAUU (structured_RNA) [32mer]	–	binds	binds	binds	binds	–
UGGGCUGUUCGCCCAU (structured_RNA) [32merHairpin]	–	–	binds	–	–	binds
